Reference: US20220411483A1 (Chugai, published 2022)

T1: FcgRIIaR (human, UniProt P12318 34-217)
T1 construct: extracellular domain; also called FcγRIIa R type; FcγRIIa (R type)
T1 sequence (looked up): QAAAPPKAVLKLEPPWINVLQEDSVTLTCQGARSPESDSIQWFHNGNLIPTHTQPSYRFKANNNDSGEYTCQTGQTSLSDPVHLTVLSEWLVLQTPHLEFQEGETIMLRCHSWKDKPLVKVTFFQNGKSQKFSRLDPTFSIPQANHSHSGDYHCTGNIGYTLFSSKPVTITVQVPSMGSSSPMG

T2: FcgRIIb (human, UniProt P31994 43-217)
T2 construct: extracellular domain; also called FcγRIIb
T2 sequence (looked up): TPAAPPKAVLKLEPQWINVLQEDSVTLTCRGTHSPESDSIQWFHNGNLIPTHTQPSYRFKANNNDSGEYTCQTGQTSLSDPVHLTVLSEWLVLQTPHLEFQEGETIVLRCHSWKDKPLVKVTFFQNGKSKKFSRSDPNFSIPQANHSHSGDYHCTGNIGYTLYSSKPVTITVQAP

T3: human FcγRIIa R type extracellular domain with C-terminal His tag (human, UniProt P12318 34-217)
T3 construct: extracellular domain; also called FcgRIIaR
T3 sequence (looked up): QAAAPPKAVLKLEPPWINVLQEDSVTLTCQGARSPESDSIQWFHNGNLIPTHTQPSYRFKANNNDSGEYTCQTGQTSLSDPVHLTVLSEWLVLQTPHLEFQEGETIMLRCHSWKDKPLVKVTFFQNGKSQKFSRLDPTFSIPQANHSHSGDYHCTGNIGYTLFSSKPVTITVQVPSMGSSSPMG

T4: human FcγRIIb extracellular domain with C-terminal His tag (human, UniProt P31994 43-217)
T4 construct: extracellular domain; also called FcgRIIb
T4 sequence (looked up): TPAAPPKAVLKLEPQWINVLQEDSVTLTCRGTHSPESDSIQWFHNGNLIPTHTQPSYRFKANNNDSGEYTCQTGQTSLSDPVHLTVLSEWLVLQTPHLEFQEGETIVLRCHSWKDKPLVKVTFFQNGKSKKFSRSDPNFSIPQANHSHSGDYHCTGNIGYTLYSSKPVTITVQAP

T5: human FcγRIIa H type extracellular domain with C-terminal His tag (human, UniProt P12318 34-217)
T5 construct: extracellular domain; also called FcgRIIaH
T5 sequence (looked up): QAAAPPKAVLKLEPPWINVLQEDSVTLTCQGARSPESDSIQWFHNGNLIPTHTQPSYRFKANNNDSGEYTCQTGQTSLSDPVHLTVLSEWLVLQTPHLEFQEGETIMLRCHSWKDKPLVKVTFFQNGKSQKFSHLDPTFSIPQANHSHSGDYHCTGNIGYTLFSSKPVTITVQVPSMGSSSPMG


Assays:
FcgRIIaR = target: T1, FcgRIIaR; experiment: SPR, amount bound per captured antibody
FcgRIIb = target: T2, FcgRIIb; experiment: SPR, amount bound per captured antibody
[1] = target: T6, human FcγRIa extracellular domain with C-terminal His tag (human, UniProt P12314 16-292); experiment: SPR, antibody captured, FcgR analyte
T6 construct: Whole entry named; also called FcgRIa
T6 sequence (P12314 16-292): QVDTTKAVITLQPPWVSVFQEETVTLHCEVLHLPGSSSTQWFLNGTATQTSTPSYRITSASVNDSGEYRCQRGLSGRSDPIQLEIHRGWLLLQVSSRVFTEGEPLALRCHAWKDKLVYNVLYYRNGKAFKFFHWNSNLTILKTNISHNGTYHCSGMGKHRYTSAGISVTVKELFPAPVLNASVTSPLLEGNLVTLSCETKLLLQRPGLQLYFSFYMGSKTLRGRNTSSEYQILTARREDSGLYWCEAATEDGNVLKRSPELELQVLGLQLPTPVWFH

[2] = target: T3, human FcγRIIa R type extracellular …; experiment: SPR, antibody captured, FcgR analyte
[3] = target: T4, human FcγRIIb extracellular domain with …; experiment: SPR, antibody captured, FcgR analyte
[4] = target: T6, human FcγRIa extracellular domain with …; experiment: SPR, KD of IL6R-G1d/IL6R-L divided by KD of variant
[5] = target: T3, human FcγRIIa R type extracellular …; experiment: as above
[6] = target: T7, human FcγRIIIa V type extracellular domain with C-terminal His tag (human, UniProt P08637 17-208); experiment: as above
T7 construct: extracellular domain; also called FcgRIIIaV
T7 sequence (P08637 17-208 F176V): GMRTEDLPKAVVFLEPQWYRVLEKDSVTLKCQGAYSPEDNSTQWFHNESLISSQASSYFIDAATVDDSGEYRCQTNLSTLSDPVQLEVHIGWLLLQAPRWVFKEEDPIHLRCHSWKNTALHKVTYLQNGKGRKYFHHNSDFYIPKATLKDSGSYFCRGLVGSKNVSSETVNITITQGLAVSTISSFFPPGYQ

[7] = target: T5, human FcγRIIa H type extracellular …; experiment: as above
[8] = target: T4, human FcγRIIb extracellular domain with …; experiment: as above

Binder | Relative FcgRIIaR-binding Activity (FcgRIIaR) | Relative FcgRIIb-binding Activity (FcgRIIb) | Kd [1] | Kd [2] | Kd [3] | Relative FcgRIa-binding Activity [4] | Relative FcgRIIaR-binding Activity [5] | Relative FcgRIIIaV-binding Activity [6] | Relative FcgRIIaH-binding Activity [7] | Relative FcgRIIb-binding Activity [8]
IL6R-P606/IL6R-L (antibody, human IgG1, kappa) heavy: QVQLQESGPGLVKPSETLSLTCAVSGHSISHDHAWSWVRQPPGEGLEWIGFISYSGITNYNPSLQGRVTISRDNSKNTLYLQMNSLRAEDTAVYYCARSLARTTAMDYWGEGTLVTVSSASTKGPSVFPLAPSSKSTSGGTAALGCLVKDYFPEPVTVSWNSGALTSGVHTFPAVLQSSGLYSLSSVVTVPSSSLGTQTYICNVNHKPSNTKVDKKVEPKSCDKTHTCPPCPAPDLLGGDKVFLFPPKPKDTLMISRTPEVTCVVIDVAEEDGEVKFNWYVDGVEVHNAKTKPREEQYNSTYRVVSVLTVLHQDWLNGKEYKCKVSNKALPAPIEKTISKAKGQPREPQVYTLPPSRDELTKNQVSLTCLVKGFYPSDIAVEWESNGQPENNYKTTPPVLDSDGSFFLYSKLTVDKSRWQQGNVFSCSVMHEALHNHYTQKSLSLSP light: not shown | 4.8 IL6R-G1d/IL6R-L=100 | 7.7 IL6R-G1d/IL6R-L=100 | – | – | – | – | – | – | – | –
IL6R-P637/IL6R-L (antibody, human IgG1, kappa) heavy: QVQLQESGPGLVKPSETLSLTCAVSGHSISHDHAWSWVRQPPGEGLEWIGFISYSGITNYNPSLQGRVTISRDNSKNTLYLQMNSLRAEDTAVYYCARSLARTTAMDYWGEGTLVTVSSASTKGPSVFPLAPSSKSTSGGTAALGCLVKDYFPEPVTVSWNSGALTSGVHTFPAVLQSSGLYSLSSVVTVPSSSLGTQTYICNVNHKPSNTKVDKKVEPKSCDKTHTCPPCPAPDLLGGDSVFLFPPKPKDTLMISRTPEVTCVVIDVYEEDGEVKFNWYVDGVEVHNAKTKPREEQYNSTYRVVSVLTVLHQDWLNGKEYKCKVSNKALPAPIEKTISKAKGQPREPQVYTLPPSRDELTKNQVSLTCLVKGFYPSDIAVEWESNGQPENNYKTTPPVLDSDGSFFLYSKLTVDKSRWQQGNVFSCSVMHEALHNHYTQKSLSLSP light: not shown | – | 55.5 IL6R-G1d/IL6R-L=100 | – | – | – | – | – | – | – | –
IL6R-P780/IL6R-L (antibody, human IgG1, kappa) heavy: QVQLQESGPGLVKPSETLSLTCAVSGHSISHDHAWSWVRQPPGEGLEWIGFISYSGITNYNPSLQGRVTISRDNSKNTLYLQMNSLRAEDTAVYYCARSLARTTAMDYWGEGTLVTVSSASTKGPSVFPLAPSSKSTSGGTAALGCLVKDYFPEPVTVSWNSGALTSGVHTFPAVLQSSGLYSLSSVVTVPSSSLGTQTYICNVNHKPSNTKVDKKVEPKSCDKTHTCPPCPAPELLGGDSVFLFPPKPKDTLMISRTPEVTCVVIDVAEEDGEVKFNWYVDGVEVHNAKTKPREEQYNSTYRVVSVLTVLHQDWLNGKEYKCEVSNKALPAPIEKTISKAKGQPREPQVYTLPPSRDELTKNQVSLTCLVKGFYPSDIAVEWESNGQPENNYKTTPPVLDSDGSFFLYSKLTVDKSRWQQGNVFSCSVMHEALHNHYTQKSLSLSP light: not shown | – | – | 2.1 nM | 1.7 µM | 34 nM | 0.152 | 0.65 | 0.008 | 0.008 | 61.8
IL6R-P781/IL6R-L (antibody, human IgG1, kappa) heavy: QVQLQESGPGLVKPSETLSLTCAVSGHSISHDHAWSWVRQPPGEGLEWIGFISYSGITNYNPSLQGRVTISRDNSKNTLYLQMNSLRAEDTAVYYCARSLARTTAMDYWGEGTLVTVSSASTKGPSVFPLAPSSKSTSGGTAALGCLVKDYFPEPVTVSWNSGALTSGVHTFPAVLQSSGLYSLSSVVTVPSSSLGTQTYICNVNHKPSNTKVDKKVEPKSCDKTHTCPPCPAPELLGGDSVFLFPPKPKDTLMISRTPEVTCVVVDVSHEDPEVKFNWYVDGVEVHNAKTKPREEQYNATYRVVSVLTVLHQDWLNGKEYKCKVSNKGLPSSIEKTISKAKGQPREPQVYTLPPSRDELTKNQVSLTCLVKGFYPSDIAVEWESNGQPENNYKTTPPVLDSDGSFFLYSKLTVDKSRWQQGNVFSCSVMHEALHNHYTQKSLSLSP light: not shown | – | – | 17 nM | 11 µM | 9000 nM | 0.019 | 0.1 | 0.007 | 0.003 | 0.2
IL6R-P783/IL6R-L (antibody, human IgG1, kappa) heavy: QVQLQESGPGLVKPSETLSLTCAVSGHSISHDHAWSWVRQPPGEGLEWIGFISYSGITNYNPSLQGRVTISRDNSKNTLYLQMNSLRAEDTAVYYCARSLARTTAMDYWGEGTLVTVSSASTKGPSVFPLAPSSKSTSGGTAALGCLVKDYFPEPVTVSWNSGALTSGVHTFPAVLQSSGLYSLSSVVTVPSSSLGTQTYICNVNHKPSNTKVDKKVEPKSCDKTHTCPPCPAPELLGDDSVFLFPPKPKDTLMISRTPEVTCVVVDVSHEDPEVKFNWYVDGVEVHNAKTKPREEQYNSTYRVVSVLTVLHQDWLNGKEYKCKVSNKGLPSSIEKTISKAKGQPREPQVYTLPPSRDELTKNQVSLTCLVKGFYPSDIAVEWESNGQPENNYKTTPPVLDSDGSFFLYSKLTVDKSRWQQGNVFSCSVMHEALHNHYTQKSLSLSP light: not shown | – | – | 160 nM | 39 µM | 3800 nM | 0.002 | 0.03 | 0.006 | 0.006 | 0.6
IL6R-P779/IL6R-L (antibody, human IgG1, kappa) heavy: QVQLQESGPGLVKPSETLSLTCAVSGHSISHDHAWSWVRQPPGEGLEWIGFISYSGITNYNPSLQGRVTISRDNSKNTLYLQMNSLRAEDTAVYYCARSLARTTAMDYWGEGTLVTVSSASTKGPSVFPLAPSSKSTSGGTAALGCLVKDYFPEPVTVSWNSGALTSGVHTFPAVLQSSGLYSLSSVVTVPSSSLGTQTYICNVNHKPSNTKVDKKVEPKSCDKTHTCPPCPAPELLGGDSVFLFPPKPKDTLMISRTPEVTCVVIDVAEEDGEVKFNWYVDGVEVHNAKTKPREEQYNSTYRVVSVLTVLHQDWLNGKEYKCAVSNKALPAPIEKTISKAKGQPREPQVYTLPPSRDELTKNQVSLTCLVKGFYPSDIAVEWESNGQPENNYKTTPPVLDSDGSFFLYSKLTVDKSRWQQGNVFSCSVMHEALHNHYTQKSLSLSP light: not shown | – | – | 3.4 nM | 2.2 µM | 50 nM | 0.094 | 0.5 | 0.011 | 0.009 | 42
IL6R-P784/IL6R-L (antibody, human IgG1, kappa) heavy: QVQLQESGPGLVKPSETLSLTCAVSGHSISHDHAWSWVRQPPGEGLEWIGFISYSGITNYNPSLQGRVTISRDNSKNTLYLQMNSLRAEDTAVYYCARSLARTTAMDYWGEGTLVTVSSASTKGPSVFPLAPSSKSTSGGTAALGCLVKDYFPEPVTVSWNSGALTSGVHTFPAVLQSSGLYSLSSVVTVPSSSLGTQTYICNVNHKPSNTKVDKKVEPKSCDKTHTCPPCPAPDLLGDDSVFLFPPKPKDTLMISRTPEVTCVVVDVSHEDPEVKFNWYVDGVEVHNAKTKPREEQYNSTYRVVSVLTVLHQDWLNGKEYKCKVSNKGLPSSIEKTISKAKGQPREPQVYTLPPSRDELTKNQVSLTCLVKGFYPSDIAVEWESNGQPENNYKTTPPVLDSDGSFFLYSKLTVDKSRWQQGNVFSCSVMHEALHNHYTQKSLSLSP light: not shown | – | – | 88 nM | 21 µM | 2200 nM | 0.004 | 0.05 | 0.01 | 0.007 | 1
IL6R-P782/IL6R-L (antibody, human IgG1, kappa) heavy: QVQLQESGPGLVKPSETLSLTCAVSGHSISHDHAWSWVRQPPGEGLEWIGFISYSGITNYNPSLQGRVTISRDNSKNTLYLQMNSLRAEDTAVYYCARSLARTTAMDYWGEGTLVTVSSASTKGPSVFPLAPSSKSTSGGTAALGCLVKDYFPEPVTVSWNSGALTSGVHTFPAVLQSSGLYSLSSVVTVPSSSLGTQTYICNVNHKPSNTKVDKKVEPKSCDKTHTCPPCPAPDLLGGDSVFLFPPKPKDTLMISRTPEVTCVVVDVSHEDPEVKFNWYVDGVEVHNAKTKPREEQYNSTYRVVSVLTVLHQDWLNGKEYKCKVSNKGLPSSIEKTISKAKGQPREPQVYTLPPSRDELTKNQVSLTCLVKGFYPSDIAVEWESNGQPENNYKTTPPVLDSDGSFFLYSKLTVDKSRWQQGNVFSCSVMHEALHNHYTQKSLSLSP light: not shown | – | – | 30 nM | 37 µM | 3600 nM | 0.011 | 0.03 | 0.006 | 0.005 | 0.6
